Results as given in patent US20060210655A1, “Bioactive compositions, natural methods of producing them and computational methods for designing natural production processes” (priority 2004, published 2006).

What was measured:
Y2-GPCR = molecular target: T1, Y2-GPCR (Homo sapiens, UniProt P49146); assay: competitive binding assay against PYY22-36 on Y2-GPCR
T1 sequence (P49146 1-381): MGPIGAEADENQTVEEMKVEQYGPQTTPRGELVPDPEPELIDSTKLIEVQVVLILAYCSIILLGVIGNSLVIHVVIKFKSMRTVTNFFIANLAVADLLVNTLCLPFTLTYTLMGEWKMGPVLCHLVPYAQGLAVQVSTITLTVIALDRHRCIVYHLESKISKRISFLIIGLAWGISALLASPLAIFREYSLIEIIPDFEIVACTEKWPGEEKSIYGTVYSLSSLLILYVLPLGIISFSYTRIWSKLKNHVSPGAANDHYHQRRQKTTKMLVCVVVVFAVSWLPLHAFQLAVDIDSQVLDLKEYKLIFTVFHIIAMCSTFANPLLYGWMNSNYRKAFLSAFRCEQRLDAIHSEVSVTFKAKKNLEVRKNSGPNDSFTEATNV
Method: The peptides derived from the proteins AtRGP2, OsRGP1 and OsBiP were synthesized in 5 mg quantities at and purified to a purity of above about 90%. The peptides were tested in a competitive binding assay against PYY^22-36 for binding to the GPCR receptor.
In-vitro receptor-based screening of receptor subtypes Y1, Y2, and Y3 was performed according to protocols known in the art. (Munoz et al., Mol. Cell. Endocrinol. 107, 77 (1995), Fuhlendorf et al., PNAS 87, 182 (1990)) Screening of OsBiP, ZMRGP1 and AtRGP1 was conducted on Y2-GPCR as described above using known methods and activity was measured as the percentage of inhibition of binding of the endogenous ligand PYY^22-36 sequence. The PYY^22-36 sequence was used as a positive control. Of the peptides tested, the one derived from AtRGP1 protein was able to inhibit binding of PYY^22-36 by 20-40% when 10 μM concentration of both the PYY^22-36 and […] peptide were used in the binding assay. […] In vivo tissue-based screening on cultures of rat colon cells can be carried out according to known protocols, such as described in Dumont et al., Eur. J. Pharmacol. 238, 37 (1993).

CCK-B receptor = molecular target: T2, CCK-B receptor (Homo sapiens, UniProt P32239); assay: competitive binding assay against CCK-8 for binding to the CCK-B GPCR receptor; details: for inhibition of binding of the ligand CCK-8 to CCK-B receptor: synthetic peptides, 10 μM concentration; for inhibition of CCK-8 binding to the CCK-B receptor: peptides purified from trypsin hydrolysate, 10 μM
T2 sequence (P32239 1-447): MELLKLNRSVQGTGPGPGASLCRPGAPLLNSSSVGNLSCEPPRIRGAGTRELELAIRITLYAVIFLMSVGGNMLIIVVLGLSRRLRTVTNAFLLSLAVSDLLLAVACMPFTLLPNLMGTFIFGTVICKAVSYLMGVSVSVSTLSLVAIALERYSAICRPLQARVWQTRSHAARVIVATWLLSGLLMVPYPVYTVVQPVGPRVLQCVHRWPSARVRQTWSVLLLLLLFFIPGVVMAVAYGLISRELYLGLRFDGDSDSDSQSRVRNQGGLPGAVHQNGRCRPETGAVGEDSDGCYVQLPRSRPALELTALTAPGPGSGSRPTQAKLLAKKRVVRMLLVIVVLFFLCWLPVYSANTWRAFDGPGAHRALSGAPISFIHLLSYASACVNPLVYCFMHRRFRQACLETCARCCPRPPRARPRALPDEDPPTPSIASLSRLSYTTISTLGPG
Method: Oryzacystatin is a cystein proteinase inhibitor protein. […] The peptides […], PWMDFK and […] were synthesized in 5 mg quantities and purified to a purity of above about 90%. The peptides were tested in a competitive binding assay against CCK-8 for binding to the CCK-B GPCR receptor.
In-vitro receptor-based screening of receptor subtypes CCK-A and CCK-B was performed according to protocols known in the art. The binding activity of peptides […], PWMDFK and […] on CCK-A and CCK-B GPCR was measured as the percentage of inhibition of binding of the endogenous ligand CCK-8 sequence. The CCK-8 sequence was used as a positive control in this assay. […] None of the peptides tested activated CCK-A receptor at concentrations as high as 10 μM, probably due to the lack of sulfonation, a chemical modification required for agonizing the CCK-A receptor.
Hydrolysates were generated from the recombinantly expressed and purified oryzacystatin protein which was isolated from Oryza sativa. Trypsin was used to hydrolyze 10 mg of each sample using standard conditions. […] Again the hydrolysate and the two purified peptides were submitted to receptor-based screening. The hydrolysate itself inhibited CCK-8 binding to the CCK-B receptor by 21% at a 100 μM hydrolysate concentration, while the purified peptides, […] and PWMDFK, inhibited CCK-8 binding by 16%, and 14% at a 10 μM concentrations.
A final optimization of the hydrolysis by the combined consecutive action of trypsin and limited carboxypeptidase digestion was carried out with the goal of obtaining the peptides […] and PWMDF, resulting from the removal of the C-terminal lysine residue.

[1] = obese or nonobese subjects, cited from earlier work
[2] = molecular target: T3, CCK-B GPCR receptor (Homo sapiens (Human)) (UniProt P32239); assay: competitive receptor binding assay against CCK-8 on CCK-B receptor, synthetic peptide at 10 µM
T3 sequence: T2 sequence (P32239 1-447)

[3] = molecular target: T4, Y2 G-protein-coupled receptor; assay: competitive receptor binding assay on Y2-GPCR against PYY22-36, both peptides at 10 µM
T4 sequence (P49146 whole entry, species assumed, looked up): T1 sequence (P49146 1-381)

Molecule: YSCRYFGYLVSKKKY (listed as Arabidopsis thaliana) [AtRGP1, peptide derived from Arabidopsis thaliana amylogenin protein RGP]
- percentage of inhibition of binding of PYY22-36 (Y2-GPCR; Y2-GPCR, 10 μM concentration of both PYY22-36 and peptide): 20-40%

Molecule: FDGVDFSEPLTRARF (listed as Oryza sativa) [OsBIP]
- binding to the Y2 receptor (Y2-GPCR; qualitative): shown to bind the Y2 receptor

Molecule: PWMDFKELQEFK (listed as Oryza sativa) [Oryza sativa oryzacystatin fragment, trypsin]
- inhibition of binding of the ligand CCK-8 to CCK-B receptor (CCK-B receptor): 5%

Molecule: VWEKPWMDFK (listed as Oryza sativa) [Oryza sativa oryzacystatin fragment, trypsin]
- inhibition of CCK-8 binding to the CCK-B receptor (CCK-B receptor): 16%
- inhibition of binding of the ligand CCK-8 to CCK-B receptor (CCK-B receptor): 27%

Molecule: PYY: natural hormone produced by endocrine L-cells in the gut; agonist of Y2 receptors
- cumulative 24-hour caloric intake ([1]; after 90-minute intravenous infusion): significant decrease
- reduction of caloric intake ([1]; two hours after a 90-minute intravenous infusion): 30%

Molecule: PWMDFK (listed as Oryza sativa) [Oryza sativa oryzacystatin fragment, trypsin]
- inhibition of CCK-8 binding to the CCK-B receptor (CCK-B receptor): 14%
- inhibition of binding of the ligand CCK-8 to CCK-B receptor (CCK-B receptor): 16%

Molecule: PWMDFKELQEFK [Oryza sativa oryzacystatin hydrolyzed with trypsin - synthetic peptide 3]
- % inhibition of binding of CCK-8 [2]: 5%

Molecule: YSCRYFGYLVSKKKY [AtRGP2 peptide fragment]
- % inhibition of binding of PYY22-36 [3]: 20 to 40%
